# Results: US20230349903A1, “ASSAYS AND REAGENTS FOR CHARACTERIZATION OF MHCI PEPTIDE BINDING” (priority 2020, published 2023)
# Where no end group is shown, it is not given here. [ ]: non-standard residue; d: D form. code J = not defined here
# How the values were obtained:
# B*35:03 [1] = target: T1, B*35:03 (Homo sapiens, UniProt P01889, A329T/A93T/A95T/C349S/D201E/D98Y/E176V/E187L/E204Q/E69T/I218V/K202T/L119I/Q94N/R155S/R180L/S121R/S35A/S48A/T118I/V127L/V306I/V36M/Y140F/Y91F); settings: IEDB value, cellular MHC/mass spectrometry; cited from earlier work
# C*02:02 [2] = target: T2, C*02:02 (Homo sapiens, UniProt P10321, A176E/A235T/A330V/A97T/C350S/D114A/D33Y/G40S/L171W/L180W/L218V/M285V/M309V/M331V/N104K/P208H/Q277E/Q291P/R45H/S101N/S123Y/S297R/S48A/T187E/T329A/T363A/V319A); experiment: ELISA of small scale MHCI refold (anti-HLA W6/32 capture, anti-B2M detection); type: binding; settings: for S/N ELISA value: C*02:02, 1.0 μg/mL MHCI, no peptide control as background; for normalized ELISA OD: C*02:02, 1 μg/mL MHCI, normalized to no peptide control
# Protocol: Recombinant HLA alleles and B2M were over-expressed in E. coli, purified from inclusion bodies, and stored under denaturing conditions (6M Guanidine HCL, 25 mM Tris pH 8) in −80° C. as described above. In a 200 μL reaction, the peptide (0.01 mM, per well), oxidized and reduced glutathione (0.5 mM and 4.0 mM, respectively), recombinant HLA alleles (0.03 mg/mL) and B2M (0.01 mg/mL) were all combined within a 96-well plate. Refold screens were performed with five different peptides for each HLA of interest as described above (Table 3). and the MHCI complex was incubated at 4° C. for 3-5 days to allow refolding. Refolded samples were analyzed by ELISA, and the highest performing peptide was selected for further analysis. All data was analyzed relative to the negative control refold, which was performed in the absence of peptide (labeled NP). HLA-A*02:01 refolded with the CMV pp65 viral epitope was used as a positive control. […]
# (§1) A 384-well Nunc Maxisorp plate (ThermoFisher Scientific, Waltham, MA) was coated with 25 μL/well of mouse IgG2a anti-HLA ABC clone W6/32 (Novus Biological, Littleton, Co.) at 8 μg/mL in coating buffer (0.05 sodium carbonate pH 9.6). After overnight incubation at 4° C., the plate was washed 3 times with wash buffer (PBS, 0.5% Tween 20). The plate was then blocked with 50 μL/well of Block buffer (PBS, 0.5% BSA, 10 ppm Proclin) and incubated at room temperature (RT) with agitation for 1 hour. […] The plate was washed six times and 25 IL of biotinylated mouse IgG1 anti-human B2M (BioLegend, San Diego, CA) at 100 ng/mL in assay diluent was added to each well. After a 1 hour incubation at RT and six washes, 25 μL/well of Streptavidin-Horseradish Peroxidase (GE, Marlborough, MA) was added to the plate and incubated for 30 min at RT. The color reaction was developed with TMB peroxidase substrate (Moss, Pasadena, MD) at RT for 15 min, and the reaction was stopped with 1M phosphoric acid. The absorbance was measured at a wavelength of […] with a reference at 620 nm. Refolded MHC monomers without peptide or irrelevant peptide were used as the negative controls for each allele to normalize the signal.
# (§2) Recombinant HLA alleles and B2M were over-expressed in E. coli, purified from inclusion bodies, and stored under denaturing conditions (6M Guanidine HCl, 25 mM Tris pH 8) in −80° C. as described above. In a 200 μL reaction, the peptide (0.01 mM, per well), oxidized and reduced glutathione (0.5 mM and 4.0 mM, respectively), recombinant HLA alleles (0.03 mg/mL) and B2M (0.01 mg/mL) were all combined in a 96-well plate. Refolds were performed with five different peptides for each HLA of interest as described above (Table 3), and the MHCI complex was incubated at 4° C. for 3-5 days to allow refolding. MHCI complex refolds were also performed in the absence of a peptide and used as the negative control to calculate the signal to noise (S/N) for the experimental peptides. Given that there should have been minimal properly refolded complex in the absence of a peptide, these samples provided the overall background of the assay to calculate the S/N value. HLA-A*02:01 refolded with the CMV pp65 viral epitope was used as a positive control. Peptides yielding the highest signal to noise ratio (S/N) were selected for further analysis.
# Two different ELISA assays were evaluated to optimize the sensitivity of the assay. In the first assay format, the refolded MHCI was captured with anti-B2M antibody and detected with pan ABC anti-HLA antibody (clone W6/32). In the second assay format, MHCI was captured with the pan ABC anti-HLA antibody (clone W6/32) and detected with the anti-B2M antibody. In both assays, a 384-well Nunc Maxisorp plate (Thermo Fisher Scientific, Waltham, MA) was coated with 25 μL/well of capture antibody, mouse IgG1 anti-human B2M (BioLegend, San Diego, CA) or mouse IgG2a anti-HLA ABC clone W6/32 (Novus Biological, Littleton, Co.), at 8 μg/mL in coating buffer (0.05 sodium carbonate pH 9.6). […]
# C*02:02 [3] = target: T2, C*02:02; settings: IEDB value, cellular MHC/mass spectrometry; cited from earlier work
# B*18:01 = B*18:01 (Homo sapiens, UniProt P01889, A329T/A93T/A95T/C349S/D201E/D54G/D98Y/E176V/E187T/E204Q/E69T/K202T/Q94N/R155S/R180L/S121R/V306I/Y140S/Y195H/Y33H/Y91S); settings: IEDB value, purified MHC/competitive/radioactivity, read-out: half maximal inhibitory concentration (IC50); cited from earlier work
# C*14:02 = C*14:02 (Homo sapiens, UniProt P10321, A176E/A330V/A35S/A97T/C350S/D114A/D33S/L171W/L180R/L218V/M285V/M309V/M331V/P208H/Q277E/Q291P/R121W/R243W/S123F/S297R/S48A/T329A/T363A/V319A); settings: IEDB value, purified MHC/direct/fluorescence, read-out: dissociation constant KD; cited from earlier work
# A*26:01 = A*26:01 (Homo sapiens, UniProt P04439, A114D/A173T/A270S/D101N/D185E/E277Q/E87N/F33Y/G231S/I121R/I218V/K168Q/L180W/L300P/L318F/P208A/P217A/Q86R/Q94H/R138Q/S129P/T187R/T323A/T345S/V100A/V358M); settings: IEDB value, purified MHC/direct/fluorescence, read-out: dissociation constant KD (~EC50); cited from earlier work
# B*35:03 [4] = target: T1, B*35:03; experiment: ELISA of small scale MHCI refold (anti-HLA W6/32 capture, anti-B2M detection); type: binding; parameters: inferred from enzymatic biotinylation; made in house; host or cells: Escherichia coli; settings: for S/N ELISA value: B*35:03, 1.0 μg/mL MHCI, no peptide control as background; for normalized ELISA OD (signal to background): B*35:03, 1 μg/mL MHCI, normalized to no peptide control
# Protocol: Recombinant HLA alleles and B2M were over-expressed in E. coli, purified from inclusion bodies, and stored under denaturing conditions (6M Guanidine HCL, 25 mM Tris pH 8) in −80° C. as described above. In a 200 μL reaction, the peptide (0.01 mM, per well), oxidized and reduced glutathione (0.5 mM and 4.0 mM, respectively), recombinant HLA alleles (0.03 mg/mL) and B2M (0.01 mg/mL) were all combined within a 96-well plate. Refold screens were performed with five different peptides for each HLA of interest as described above (Table 3). and the MHCI complex was incubated at 4° C. for 3-5 days to allow refolding. Refolded samples were analyzed by ELISA, and the highest performing peptide was selected for further analysis. All data was analyzed relative to the negative control refold, which was performed in the absence of peptide (labeled NP). HLA-A*02:01 refolded with the CMV pp65 viral epitope was used as a positive control.
# Formation of stable conditional MHCI complexes upon refolding with the redesigned peptides were identified by ELISA as described above. […] The original peptide (containing no UV amino acid substitution) was used as a positive control. All peptides used here were purchased from JPT (www.jpt.com) or ELIM Biopharm (www.elimbio.com).
# as §1, §2
# Two different ELISA assays were evaluated to optimize the sensitivity of the assay. In the first assay format, the refolded MHCI was captured with anti-B2M antibody and detected with pan ABC anti-HLA antibody (clone W6/32). In the second assay format, MHCI was captured with the pan ABC anti-HLA antibody (clone W6/32) and detected with the anti-B2M antibody. […]
# HLA-A*02:03 = HLA-A*02:03 (Homo sapiens, UniProt P04439, A173T/D140Y/D185E/D98H/E277Q/G131W/G231S/I119V/I121R/I166T/I218V/L180W/L300P/L318F/N151K/N90K/P208A/P217A/Q86G/Q94H/R138H/R169H/T345S); experiment: as above; type: binding; parameters: inferred from enzymatic biotinylation; made in house; host or cells: Escherichia coli; settings: for S/N ELISA value: A*02:03, 1.0 μg/mL MHCI, no peptide control as background; for normalized ELISA OD (signal to background): A*02:03, 1 μg/mL MHCI, normalized to no peptide control
# Protocol: Recombinant HLA alleles and B2M were over-expressed in E. coli, purified from inclusion bodies, and stored under denaturing conditions (6M Guanidine HCL, 25 mM Tris pH 8) in −80° C. as described above. In a 200 μL reaction, the peptide (0.01 mM, per well), oxidized and reduced glutathione (0.5 mM and 4.0 mM, respectively), recombinant HLA alleles (0.03 mg/mL) and B2M (0.01 mg/mL) were all combined within a 96-well plate. Refold screens were performed with five different peptides for each HLA of interest as described above (Table 3). and the MHCI complex was incubated at 4° C. for 3-5 days to allow refolding. […] All data was analyzed relative to the negative control refold, which was performed in the absence of peptide (labeled NP). HLA-A*02:01 refolded with the CMV pp65 viral epitope was used as a positive control.
# A 384-well Nunc Maxisorp plate (ThermoFisher Scientific, Waltham, MA) was coated with 25 μL/well of mouse IgG2a anti-HLA ABC clone W6/32 (Novus Biological, Littleton, Co.) at 8 μg/mL in coating buffer (0.05 sodium carbonate pH 9.6). After overnight incubation at 4° C., the plate was washed 3 times with wash buffer (PBS, 0.5% Tween 20). The plate was then blocked with 50 μL/well of Block buffer (PBS, 0.5% BSA, 10 ppm Proclin) and incubated at room temperature (RT) with agitation for 1 hour. After washing the plate 3 times with wash buffer, 25 μL/well of the unpurified refolded MHC complex at 40 μg/mL with and without peptides in assay diluent (PBS, 0.5% BSA+0.05% Tween20+10 ppm Proclin) was added to the plate and incubated for 1 hour at RT. The plate was washed six times and 25 IL of biotinylated mouse IgG1 anti-human B2M (BioLegend, San Diego, CA) at 100 ng/mL in assay diluent was added to each well. After a 1 hour incubation at RT and six washes, 25 μL/well of Streptavidin-Horseradish Peroxidase (GE, Marlborough, MA) was added to the plate and incubated for 30 min at RT. The color reaction was developed with TMB peroxidase substrate (Moss, Pasadena, MD) at RT for 15 min, and the reaction was stopped with 1M phosphoric acid. The absorbance was measured at a wavelength of 405 nm with a reference at 620 nm. […]
sequence,measurement,setting,value
YPYPYPHTAAFSKLIYL [Peptide B3503-05],ligand presentation,B*35:03 [1],Positive
FAAEAQKL [Peptide C0202-02],S/N ELISA value,C*02:02 [2],~8
same,normalized ELISA OD,C*02:02 [2],~8
same,ligand presentation,C*02:02 [3],Positive
IPAEGRVAL [Peptide B3503-02],ligand presentation,B*35:03 [1],Positive
FAAEAQKJ (FAAEAQKX; not fully specified) [Peptide C0202-03-04],S/N ELISA value,C*02:02 [2],very low S/N ELISA values
same,normalized ELISA OD,C*02:02 [2],very low normalized ELISA values
FEFTSFFY [Peptide B1801-01],IC50,B*18:01,0.1 nM
SYMSTFPLF [Peptide C1402-01],Kd,C*14:02,0.1 nM
APEEHPVLL [Peptide B3503-03],ligand presentation,B*35:03 [1],Positive
FAAJAQKL (FAAXAQKL; not fully specified) [Peptide C0202-03-02],S/N ELISA value,C*02:02 [2],6
same,normalized ELISA OD,C*02:02 [2],6
DTITNVTTM [Peptide A2601-05],Kd,A*26:01,4 nM
SYMSTFPLF [Peptide C0202-05],ligand presentation,C*02:02 [3],Positive
DAVPFPISL [Peptide C0202-01],ligand presentation,C*02:02 [3],Positive
FMYEGDTPL [Peptide C1402-04],Kd,C*14:02,0.1 nM
FAAEAJKL (FAAEA[code J]KL; not fully specified; reading uncertain) [Peptide C0202-03-03],S/N ELISA value,C*02:02 [2],highest S/N value
same,S/N ELISA value,C*02:02 [2]; listed as C0202-02-03,8
same,normalized ELISA OD,C*02:02 [2],highest normalized ELISA OD value
same,normalized ELISA OD,C*02:02 [2]; listed as C0202-02-03,8
DVVPMVTQM [Peptide A2601-03],Kd,A*26:01,3 nM
ETTNWLWAF [Peptide A2601-02],Kd,A*26:01,2 nM
TPANYFHVL [Peptide B3503-04],S/N ELISA value,B*35:03 [4],highest OD value
same,normalized ELISA OD (signal to background),B*35:03 [4],highest OD value
same,ligand presentation,B*35:03 [1],Positive
KIRDLLPVM [Peptide C0202-04],ligand presentation,C*02:02 [3],Positive
FMYJDFHFI [Peptide A0203-02-02],S/N ELISA value,HLA-A*02:03,highest S/N value
same,normalized ELISA OD (signal to background),HLA-A*02:03,highest normalized ELISA OD value
TJANYFHVL (TXANYFHVL; not fully specified) [Peptide B3503-04-01],S/N ELISA value,B*35:03 [4],very low S/N ELISA values
same,normalized ELISA OD (signal to background),B*35:03 [4],very low normalized ELISA values
FJYSDFHFI [Peptide A0203-02-01],S/N ELISA value,HLA-A*02:03,very low S/N ELISA values
same,normalized ELISA OD (signal to background),HLA-A*02:03,very low normalized ELISA values
FJAEAQKL (FXAEAQKL; not fully specified) [Peptide C0202-03-01],S/N ELISA value,C*02:02 [2],very low S/N ELISA values
same,normalized ELISA OD,C*02:02 [2],very low normalized ELISA values
TPAJYFHVL (TPA[code J]YFHVL; not fully specified; reading uncertain) [Peptide B3503-04-02],S/N ELISA value,B*35:03 [4],highest S/N value
same,normalized ELISA OD (signal to background),B*35:03 [4],highest normalized ELISA OD value
DELVDPINY [Peptide B1801-04],IC50,B*18:01,16 nM
TYLQSLASL [Peptide C1402-02],Kd,C*14:02,0.1 nM
IAKSGTSEF (FAAEAQKL) [Peptide C0202-03],S/N ELISA value,C*02:02 [2],highest S/N value
same,normalized ELISA OD,C*02:02 [2],highest normalized OD value
same,ligand presentation,C*02:02 [3],Positive
YYRYPTGESY [Peptide C1402-03],Kd,C*14:02,0.1 nM
